Results as given in patent US20160122418A1 (ARIDIS PHARMACEUTICALS, published 2016).

What was measured:
[1] = target: F protein of clinical RSV isolate #1 (RSV clinical isolate #1); assay: cell-based or functional assay
[2] = target: T1, F protein of palivizumab-resistant clinical RSV isolate #20 (RSV clinical isolate #20, UniProt P11209 26-574); assay: cell-based or functional assay
T1 chain: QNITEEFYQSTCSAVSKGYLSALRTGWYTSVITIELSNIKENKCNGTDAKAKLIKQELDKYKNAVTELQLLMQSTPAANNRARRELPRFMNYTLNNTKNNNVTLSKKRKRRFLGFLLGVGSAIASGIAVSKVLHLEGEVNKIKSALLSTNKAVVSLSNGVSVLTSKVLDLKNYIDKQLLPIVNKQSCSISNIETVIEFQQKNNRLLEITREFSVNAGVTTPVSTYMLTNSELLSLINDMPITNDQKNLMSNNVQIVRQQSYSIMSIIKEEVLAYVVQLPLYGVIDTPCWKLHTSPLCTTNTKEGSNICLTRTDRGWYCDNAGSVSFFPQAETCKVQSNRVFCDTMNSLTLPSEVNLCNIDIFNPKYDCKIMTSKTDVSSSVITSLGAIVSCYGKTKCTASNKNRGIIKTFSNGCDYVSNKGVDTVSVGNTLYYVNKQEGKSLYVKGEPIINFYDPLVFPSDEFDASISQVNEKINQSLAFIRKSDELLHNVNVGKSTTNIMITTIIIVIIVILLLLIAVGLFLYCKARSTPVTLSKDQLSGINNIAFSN

[3] = target: T2, F protein on intact RSV particles (Example 10, strain or isolate not stated) (RSV, strain ); assay: competition ELISA; RSV particles pre-incubated with inhibiting mAb at 20 µg/mL; competitor (coating mAb): AR201
T2 construct: also called RSV viral particles

[4] = target: T3, Human RSV (A2) Fusion glycoprotein RSV F protein, Sino Biological Inc. (Human RSV (A2), UniProt P03420 26-529); assay: SPR, Biacore 2000, F protein amine-coupled to CM5 chip, antibody as analyte, Langmuir 1:1 fit
T3 construct: Bought protein; also called purified RSV F protein; recombinant human RSV F protein

[5] = target: T3, Human RSV (A2) Fusion glycoprotein RSV …; assay: ELISA, serial dilutions of purified AR201 on plates coated 'as described above' (RSV-EIA antigen by the legend of FIG. 6, or purified F protein); anti-human IgG-HRP
[6] = target: T2, F protein on intact RSV particles …; assay: competition ELISA; RSV particles pre-incubated with inhibiting mAb at 20 µg/mL; competitor (coating mAb): palivizumab
Procedure: After incubation for one hour at 4° C., plates were washed and polyclonal rabbit-anti-RSV-HRP labeled antisera was added to each well. Bound viral particles were detected by colorimetric measurement. Maximum binding of RSV to the immobilized antibody in the presence of the competitor antibody was determined relative to binding in the presence of the monoclonal human IgG control antibody.

B1: AR201 (antibody, V domains shown)
VH: LVQLRESGPGLVKPSQTLSLTCSVSGASINLYDYFWGWIRQAPGRGPEWIGYISGSTYYNPSLKRRATISVDTSKSQFFLELTSVTAADTAVYYCARDVGWGPQYYYGLDVWGQGTTVTVSS
VL: DLVLTQSPGTLSLSPGERATLSCRASHSVQSTSLAWYQQKRGQAPRLLIYGGSSRVTGIPDRFSGSGSGTDFTLTISRLEPEDFAVYYCQQSDRSPPITFGQGTRLEMK
notes: Recombinant human IgG1 made in HEK293T cells; kappa light chain cloned whole; The claims' numbering is used here; also called KBRV201; human monoclonal antibody AR201
IC50 of neutralization, infectivity assay on Hep2 cells [1]: 1700 nM
IC50 of neutralization, infectivity assay on Hep2 cells [2]: 1710 nM
% binding of RSV to the coating mAb relative to control IgG [3]: 22.5%
Kd [4]: 0.058 nM
koff [4]: 2.7e-05 s⁻¹
kon [4]: 470000 M⁻¹ s⁻¹
EC50 [5]: 0.103 nM
% binding of RSV to the coating mAb relative to control IgG [6]: 40.8%
